According to PMC8677862, “Substrate binding modes of purine and pyrimidine nucleotides to human ecto-5′-nucleotidase (CD73) and inhibition by their bisphosphonic acid derivatives” (Purinergic Signalling, 2021):

Substrate: Nc1ncnc2c1ncn2[C@@H]1O[C@H](COP(=O)(O)O)[C@@H](O)[C@H]1O
Experiment: purified protein, by the assay type
Assay type: biochemical, human
Conditions: other: AMP 5-200 μM, 1.25 ng CD73; pH 7.5; 25.0 °C
Protocol: In this study, enzyme activity and inhibition data was characterised using a modified malachite green assay. Each assay consisted of reaction buffer A (50 mM Tris–HCl pH 7.5, 100 mM NaCl, 1 mM MgCl2) to which the appropriate substrate and/or inhibitors (see Table S1) were added. Dissolved compounds were immediately used for the inhibition assays. The reactions were generally initiated by the addition of protein. The protein concentrations, substrates and inhibitors used for the various experiments are detailed below. In all experiments, reactions were monitored over a 10-min period during which samples were taken at regular intervals. At each desired time point, a malachite green/molybdate (1:1) solution was added to the sample, which simultaneously terminated the assay and also allowed the detection of the produced phosphate ions. These reaction mixtures were incubated at 25 °C for 25 min, followed by measurement of the absorbance at 620 nm. […]
The specific activity (μmol Pi/min/mg protein) was calculated from the initial reaction rates and was used to determine when the protein refolding process had reached completion. […] Kinetic values were determined by fitting the Michaelis–Menten equation to the initial reaction rates using GraphPad Prism (GraphPad Software, La Jolla, CA, USA). […]

B1: human CD73 (Homo sapiens; K145S/K147S/K478S/N311D/N333D/N403D/N53D/T376A) (protein)
chain: WELTILHTNDVHSRLEQTSEDSSKCVDASRCMGGVARLFTKVQQIRRAEPNVLLLDAGDQYQGTIWFTVYKGAEVAHFMNALRYDAMALGNHEFDNGVEGLIEPLLKEAKFPILSANISASGPLASQISGLYLPYKVLPVGDEVVGIVGYTSKETPFLSNPGTNLVFEDEITALQPEVDKLKTLNVNKIIALGHSGFEMDKLIAQKVRGVDVVVGGHSNTFLYTGNPPSKEVPAGKYPFIVTSDDGRKVPVVQAYAFGKYLGYLKIEFDERGNVISSHGNPILLDSSIPEDPSIKADINKWRIKLDDYSTQELGKTIVYLDGSSQSCRFRECNMGNLICDAMINNNLRHADEMFWNHVSMCILNGGGIRSPIDERNDGTITWENLAAVLPFGGTFDLVQLKGSTLKKAFEHSVHRYGQSTGEFLQVGGIHVVYDLSRKPGDRVVKLDVLCTSCRVPSYDPLKMDEVYKVILPNFLANGGDGFQMIKDELLRHDSGDQDINVVSTYISKMKVIYPAVEGRIKFS
notes: His6 (C); made in house
For B1, the Km was 10.5 µM and the Vmax was 301.2 U/mg.
